17 molecules from patent US6767991 can be followed below.

Where two headings read alike, the source gives them in different places. Where no end group is shown, it is not given here. [ ]: non-standard residue; d: D form. Pro(1-NpCH2O) = Pro(4-R13), R13 = 1-NpCH2O; Pro(2-NpCH2O) = Pro(4-R13), R13 = 2-NpCH2O; P1(R14 Et, 1R,2R) = not defined here; P1(R14 Et, 1S,2S) = not defined here; Pro(4-OBn) = Pro(4-R13), R13 = OBn; Pro(O-Bn) = Pro(4-R13), R13 = O-Bn; Pro(OBn) = Pro(4-R13), R13 = OBn; Chg = N[C@H](C(=O)O)C1CCCCC1; Acca = not defined here; Nva = CCC[C@H](N)C(=O)O; Ac3c = NC1(C(=O)O)CC1

Assay [1] concerns the target recombinant NS3 protease with the NS4A peptide cofactor … (molar ratio enzyme:cofactor 1:100) (hepatitis C virus genotype 1b). The assay is described as follows: cell-based or functional assay.
For assay [2] the target is unchanged. The assay is described as follows: cell-based or functional assay. This is another data set of the same source.

Ac-[Chg]VP[Ac3c] (not fully specified (residue 3); printed as Ac-Chg-Val-Pro(1-NpCH2O)-Acca) [Compound 227 (Table 2): Ac-Chg-Val-Pro(1-NpCH2O)-Acca]: in assay [1], the IC50 worked out at 3 µM.

For the molecule D[dE]IV[Pro(O-Bn)][1‑amino‑2‑vinylcyclopropanecarboxylic acid] (not fully specified; also: further groups not given here) [Compound 636 (Table 6): P6 Asp, P5 D-Glu, P4 Ile, P3 Val, R13 O-Bn, R14 vinyl], the IC50 in assay [2] turned out to be 0.47 µM.

For Ac-[Chg]VP[P1(R14 Et, 1R,2R)] (not fully specified (residue 3); reading uncertain) [Compound 513 (Table 5): Ac-Chg-Val-Pro(1-NpCH2O)-P1(R14 Et; 1R, 2R)], in assay [1], the IC50 was 1.66 µM and the fold potency against the corresponding 1S,2S isomer (compound 514) is 25 fold.

For the molecule Ac-D[dE]IV[Pro(4-OBn)][Nva] [Compound 218 (Table 2): Ac-Asp-D-Glu-Ile-Val-Pro(O-Bn)-Nva], the IC50 in assay [2] stood at 0.49 µM.

Take Ac-[Chg]VP[Ac3c] (not fully specified (residue 3); printed as Ac-Chg-Val-Pro(R13)-Acca) [Compound 257 (Table 2): Ac-Chg-Val-Pro(R13)-Acca, R13 drawn]: the IC50 in assay [1] is 2.2 µM.

Regarding Ac-D[dE][Chg]EE[Acca] (reading uncertain) [Compound 132 (Table 1): Ac-Asp-D-Glu-Chg-Glu-Glu-Acca], the IC50 in assay [2] was found to be 36 µM.

Take Ac-D[dE]IV[Pro(OBn)][(1S,2S)‑1‑amino‑2‑ethylcyclopropanecarboxylic acid]-{NH‑(R)‑CHMePh} [Compound 1002 (Table 10): Ac-Asp-D-Glu-Ile-Val-Pro(OBn)-P1(R14 Et; 1S, 2S)-NH-(R)-CHMePh]: in assay [2], the half-inhibitory concentration (IC50) worked out at 49 µM.

Take Ac-D[dE]IV[Pro(OBn)][(1R,2R)‑1‑amino‑2‑ethylcyclopropanecarboxylic acid] [Compound 517 (Table 5): Ac-Asp-D-Glu-Ile-Val-Pro(OBn)-P1(R14 Et; 1R, 2R)]: the IC50 in assay [2] is 0.075 µM.

In the case of Ac-D[dE][Chg]V[Pro(O-Bn)][Nva] [Compound 211 (Table 2): Ac-Asp-D-Glu-Chg-Val-Pro(O-Bn)-Nva], the IC50 in assay [2] turned out to be 0.12 µM.

Ac-D[dE][Chg]V[Pro(1-NpCH2O)][Acca] (reading uncertain) [Compound 215 (Table 2): Ac-Asp-D-Glu-Chg-Val-Pro(1-NpCH2O)-Acca]: the 50% inhibitory concentration (IC50) in assay [2] came out at 0.014 µM.

Take Ac-D[dV]IV[Pro(O-Bn)][Nva] [Compound 202 (Table 2): Ac-Asp-D-Val-Ile-Val-Pro(O-Bn)-Nva]: the IC50 in assay [2] was determined as 0.93 µM.

As to Ac-D[dE]IV[Pro(2-NpCH2O)][Nva] [Compound 213 (Table 2): Ac-Asp-D-Glu-Ile-Val-Pro(2-NpCH2O)-Nva], the IC50 in assay [2] was found to be 0.036 µM.

For Ac-[Chg][Chg]P[P1(R14 Et, 1S,2S)] (not fully specified (residue 3); reading uncertain) [Compound 506 (Table 5): Ac-Chg-Chg-Pro(1-NpCH2O)-P1(R14 Et; 1S, 2S)], the IC50 in assay [1] turned out to be 4.85 µM.

Take Ac-D[dE]IV[Pro(OBn)][(1S,2S)‑1‑amino‑2‑ethylcyclopropanecarboxylic acid]-{NH‑(S)‑CHMePh} [Compound 1001 (Table 10): Ac-Asp-D-Glu-Ile-Val-Pro(OBn)-P1(R14 Et; 1S, 2S)-NH-(S)-CHMePh]: in assay [2], the IC50 turned out to be 2 µM.

For Ac-D[dE]IVP[Nva] [Compound 128 (Table 1): Ac-Asp-D-Glu-Ile-Val-Pro-Nva], in assay [2], the IC50 stood at 7.4 µM.

For the molecule Ac-[Chg]VPX (not fully specified (residue 3); printed as Ac-Chg-Val-Pro(O-Bn)-P1) [Compound 228 (Table 2): Ac-Chg-Val-Pro(O-Bn)-P1, P1 drawn], in assay [1], the IC50 was determined as 35 µM.

B1: Compound 236 (Table 2): Ac-Gly-thioxo-Ile-Val-Pro(1-NpCH2O)-Nva (peptide)
peptide: Ac-GIVP[Nva]
modifications: not fully specified (residue 4); also: Ile2 thioxo (L-thionoisoleucine), thioamide
As for B1, the IC50 in assay [2] is 4 µM.

The term IC50 denotes the concentration that inhibits the measured activity by half.
